Five substances from patent US20200024330A1 can be followed below.

Test in all cases: cell-based or functional assay
Assay [1] has as its target HIV-1 92TH021 envelope glycoprotein (Env) on pseudovirus (HIV-1).
The target of assay [2] is HIV-1 92UG024 envelope glycoprotein (Env) on pseudovirus (HIV-1).
For assay [3], the target named is HIV-1 MGRM-D-018 envelope glycoprotein (Env) on pseudovirus (HIV-1).
Assay [4] concerns the target HIV-1 Env of isolate JRCSF (HIV-1) (UniProt P20871).
The target of assay [5] is HIV-1 Env of isolate MGRM-C-026 (HIV-1).
The target of assay [6] is HIV-1 Env of isolate 92TH021 (HIV-1).
In assay [7] the target is HIV-1 Env of isolate MGRM-F1-017 (HIV-1).
Assay [8] addresses HIV-1 Env of isolate MGRM-D-026 (HIV-1).
Assay [9] concerns the target HIV-1 Env of isolate MGRM-Chronic-B-023 (HIV-1).
For assay [10], the target named is HIV-1 Env of isolate TRJ04551.58 (HIV-1).
Assay [11] deals with HIV-1 Env of isolate MGRM-F1-013 (HIV-1).
In assay [12] the target is HIV-1 Env of isolate MGRM-Chronic-B-011 (HIV-1).
The target of assay [13] is HIV-1 Env of isolate MGRM-F1-008 (HIV-1).
The target in assay [14] is HIV-1 Env of isolate VLGCB3 (HIV-1).
Assay [15] concerns the target HIV-1 Env of isolate QH0692.42 (HIV-1).
Assay [16] deals with HIV-1 Env of isolate MGRM-Chronic-B-010 (HIV-1).
In assay [17] the target is HIV-1 Env of isolate MGRM-F1-016 (HIV-1).
The target of assay [18] is HIV-1 Env of isolate MGRM-F1-018 (HIV-1).
The target in assay [19] is HIV-1 Env of isolate MGRM-D-012 (HIV-1).
Assay [20] deals with HIV-1 Env of isolate MGRM-F1-020 (HIV-1).
In assay [21] the target is HIV-1 Env of isolate MGRM-Chronic-B-017 (HIV-1).
Assay [22] addresses HIV-1 Env of isolate TRO.11 (HIV-1).
Assay [23] deals with HIV-1 Env of isolate MGRM-D-024 (HIV-1).
The target in assay [24] is HIV-1 Env of isolate MGRM-F1-022 (HIV-1).
Assay [25] concerns the target HIV-1 Env of isolate MGRM-F1-010 (HIV-1).
For assay [26], the target named is HIV-1 Env of isolate MGRM-F1-021 (HIV-1).
For assay [27], the target named is HIV-1 Env of isolate MGRM-D-018 (HIV-1).
Assay [28] concerns the target HIV-1 Env of isolate MGRM-F1-012 (HIV-1).
The target of assay [29] is HIV-1 Env of isolate MGRM-D-016 (HIV-1).
The target of assay [30] is HIV-1 Env of isolate 98IN022 (HIV-1).
For assay [31], the target named is HIV-1 Env of isolate PVO.4 (HIV-1).
The target of assay [32] is HIV-1 Env of isolate MGRM-D-021 (HIV-1).
For assay [33], the target named is HIV-1 Env of isolate NL43 (HIV-1).
Assay [34] has as its target HIV-1 Env of isolate THR0.18 (HIV-1).
The target of assay [35] is HIV-1 Env of isolate MGRM-Chronic-B-012 (HIV-1).
Assay [36] has as its target HIV-1 Env of isolate MGRM-D-019 (HIV-1).
The target in assay [37] is HIV-1 Env of isolate 97ZA012 (HIV-1).
Assay [38] has as its target HIV-1 Env of isolate MGRM-Chronic-B-024 (HIV-1).
Assay [39] deals with HIV-1 Env of isolate MGRM-D-029 (HIV-1).
For assay [40], the target named is HIV-1 Env of isolate 93IN905 (HIV-1).
In assay [41] the target is HIV-1 Env of isolate MGRM-D-013 (HIV-1).
Assay [42] concerns the target HIV-1 Env of isolate MGRM-F1-004 (HIV-1).
The target of assay [43] is HIV-1 Env of isolate MGRM-D-011 (HIV-1).
In assay [44] the target is HIV-1 Env of isolate MGRM-F1-006 (HIV-1).
The target of assay [45] is HIV-1 Env of isolate MGRM-D-028 (HIV-1).
The target in assay [46] is HIV-1 Env of isolate SF162 (HIV-1) (UniProt P19550).
Assay [47] addresses HIV-1 Env of isolate MGRM-Chronic-B-018 (HIV-1).
For assay [48], the target named is HIV-1 Env of isolate MGRM-Chronic-B-020 (HIV-1).
Assay [49] addresses HIV-1 Env of isolate MGRM-D-020 (HIV-1).
Assay [50] addresses HIV-1 Env of isolate SC422661.8 (HIV-1).
For assay [51], the target named is HIV-1 Env of isolate MGRM-D-014 (HIV-1).
Assay [52] addresses HIV-1 Env of isolate MGRM-F1-023 (HIV-1).
Assay [53] has as its target HIV-1 Env of isolate MGRM-F1-014 (HIV-1).
Assay [54] deals with HIV-1 Env of isolate MGRM-F1-015 (HIV-1).
The target of assay [55] is HIV-1 Env of isolate 93MW959 (HIV-1).
The target of assay [56] is HIV-1 Env of isolate MGRM-D-022 (HIV-1).

Chain of PGT-141 (antibody) (VH): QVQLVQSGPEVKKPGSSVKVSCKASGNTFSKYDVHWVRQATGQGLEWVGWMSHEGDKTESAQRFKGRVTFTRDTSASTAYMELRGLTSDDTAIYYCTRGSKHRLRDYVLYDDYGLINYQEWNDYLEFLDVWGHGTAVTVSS
Chain of PGT-141 (antibody) (VL): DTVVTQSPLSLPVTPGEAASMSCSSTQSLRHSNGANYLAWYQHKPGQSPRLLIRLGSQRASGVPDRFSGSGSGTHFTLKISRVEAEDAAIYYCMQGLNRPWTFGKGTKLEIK
Chain of PGT-142 (antibody) (VH): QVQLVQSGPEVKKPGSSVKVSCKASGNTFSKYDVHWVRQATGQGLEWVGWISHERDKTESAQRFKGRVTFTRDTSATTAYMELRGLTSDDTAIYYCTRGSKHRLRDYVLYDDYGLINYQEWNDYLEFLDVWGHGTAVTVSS
Chain of PGT-142 (antibody) (VL): as the sequence (VL) above

As for “1496_C09 (PG9) (TCN-109) monoclonal antibody”, the IC50, pseudovirus neutralization in [1] amounted to 0.103 µg/mL; in assay [2], 1.91 µg/mL; in [3], 0.0444 µg/mL.

On to “PGT-132 (B cell culture well 5113_D22) (antibody)”, for which the Primary Neutralization Index (B cell culture well 5113 D22) in [4] turned out to be 3; in assay [5], 6; in assay [6], 51.

As for “PGT-133 (B cell culture well 5117_E22) (antibody)”, the Primary Neutralization Index (B cell culture well 5117 E22) came out at 3.6 in assay [4], 3.4 in assay [5] and 42.5 in [6].

Regarding PGT-141 (antibody), the IC50, pseudovirus neutralization in assay [7] was 30.8 µg/mL; in [8] it was 32.5 µg/mL; in [11], 0.043 µg/mL; in assay [13] it was 0.193 µg/mL; in assay [17], over 50 µg/mL; in assay [18] it was 0.785 µg/mL. Besides, the IC50, pseudovirus neutralization is over 50 µg/mL in [19]; 1.15 µg/mL in assay [20]; over 50 µg/mL in [23]; 0.114 µg/mL in [24]; over 50 µg/mL in assay [25]; over 50 µg/mL in assay [26]. The IC50, pseudovirus neutralization in assay [27] was over 50 µg/mL; in [28], over 50 µg/mL; in assay [29], over 50 µg/mL; in [32], over 50 µg/mL; in assay [36], 1.66 µg/mL; in [39] it was 0.057 µg/mL. In addition, the IC50, pseudovirus neutralization is 0.179 µg/mL in [41]; 0.021 µg/mL in assay [42]; over 50 µg/mL in [43]; 8.99 µg/mL in assay [44]; under 50 µg/mL in assay [45]; over 50 µg/mL in assay [49]. Besides, the IC50, pseudovirus neutralization in assay [51] was 0.01 µg/mL; in [52], 0.307 µg/mL; in assay [53], 0.001 µg/mL; in [54], over 50 µg/mL; in assay [56], over 50 µg/mL. The neutralization IC50 in assay [9] was 0.318 µg/mL; in assay [10] it was over 50 µg/mL; in assay [12], 2.24 µg/mL; in assay [4], 0.009 µg/mL; in assay [14], over 50 µg/mL; in assay [15] it was over 50 µg/mL. For the same substance, the neutralization IC50 in assay [16] is over 50 µg/mL; in assay [21], 0.147 µg/mL; in [22] it was 0.383 µg/mL; in [30], 0.001 µg/mL; in assay [31] it was 0.113 µg/mL; in assay [33], over 50 µg/mL. The neutralization IC50 is 0.007 µg/mL in assay [34]; over 50 µg/mL in assay [35]; over 50 µg/mL in assay [37]; 0.011 µg/mL in [38]; 0.001 µg/mL in assay [40]; over 50 µg/mL in assay [46]. Besides, the neutralization IC50 in assay [47] was 0.572 µg/mL; in [48], over 50 µg/mL; in assay [50], 1.66 µg/mL; in assay [55] it was 0.003 µg/mL.

As for PGT-142 (antibody), the IC50, pseudovirus neutralization was 23.5 µg/mL in assay [7]; 12.5 µg/mL in assay [8]; 0.023 µg/mL in assay [11]; 0.124 µg/mL in assay [13]; over 50 µg/mL in assay [17]; 0.404 µg/mL in assay [18]. The IC50, pseudovirus neutralization is over 50 µg/mL in [19]; 0.824 µg/mL in assay [20]; over 50 µg/mL in [23]; 0.04 µg/mL in [24]; over 50 µg/mL in assay [25]; over 50 µg/mL in [26]. Besides, the IC50, pseudovirus neutralization in assay [27] was over 50 µg/mL; in [28], over 50 µg/mL; in assay [29], over 50 µg/mL; in assay [32], over 50 µg/mL; in [36], 0.155 µg/mL; in assay [39] it was 0.192 µg/mL. Also, the IC50, pseudovirus neutralization in assay [41] was 0.221 µg/mL; in [42] it was 0.013 µg/mL; in assay [43] it was over 50 µg/mL; in assay [44] it was 12.9 µg/mL; in [45], over 50 µg/mL; in assay [49] it was over 50 µg/mL. The IC50, pseudovirus neutralization in assay [51] was 0.005 µg/mL; in assay [52] it was 0.602 µg/mL; in [53], 0.001 µg/mL; in [54], over 50 µg/mL; in assay [56], over 50 µg/mL. For the same substance, the neutralization IC50 in assay [9] was 0.486 µg/mL; in assay [10] it was over 50 µg/mL; in assay [12] it was 0.994 µg/mL; in [4], 0.01 µg/mL; in assay [14], over 50 µg/mL; in [15], over 50 µg/mL. The neutralization IC50 is over 50 µg/mL in [16]; 0.076 µg/mL in assay [21]; 0.27 µg/mL in assay [22]; 0.001 µg/mL in assay [30]; 0.066 µg/mL in assay [31]; over 50 µg/mL in [33]. Besides, the neutralization IC50 in assay [34] was 0.012 µg/mL; in assay [35] it was over 50 µg/mL; in assay [37], over 50 µg/mL; in assay [38] it was 0.005 µg/mL; in [40], 0.001 µg/mL; in assay [46], over 50 µg/mL. In addition, the neutralization IC50 in assay [47] is 0.323 µg/mL; in assay [48], over 50 µg/mL; in [50], 3.15 µg/mL; in [55], 0.001 µg/mL.
